Assays:
[1] = target: UL141-GPI (GPI-anchored ectodomain of HCMV UL141, FIX strain) (human cytomegalovirus (FIX strain)) (UniProt Q6RJQ3); assay: flow cytometry on cells
[2] = DISC immunoprecipitation and immunoblot, U2OS; conditions: glycan lost; control: TRAIL-R1 WT
[3] = immunofluorescence of receptor clustering after TRAIL, U2OS; conditions: glycan lost; control: TRAIL-R1 WT
[4] = DISC immunoprecipitation and immunoblot, reconstituted DKO cells; conditions: glycan lost; control: TRAIL-R1 WT
[5] = anti-TRAIL-R1 immunofluorescence after His-hTRAIL, reconstituted DKO cells; conditions: glycan lost; control: TRAIL-R1 WT
[6] = surface flow cytometry with MD5-1, B16; conditions: glycan lost; control: WT mTRAIL-R
receptor internalization = conditions: glycan lost; control: WT mTRAIL-R
[7] = receptor clustering upon ligand binding, B16 and U2OS; conditions: glycan lost; control: WT mTRAIL-R

Sequence of UniProt Q6RJQ3 (Q6RJQ3 37-278): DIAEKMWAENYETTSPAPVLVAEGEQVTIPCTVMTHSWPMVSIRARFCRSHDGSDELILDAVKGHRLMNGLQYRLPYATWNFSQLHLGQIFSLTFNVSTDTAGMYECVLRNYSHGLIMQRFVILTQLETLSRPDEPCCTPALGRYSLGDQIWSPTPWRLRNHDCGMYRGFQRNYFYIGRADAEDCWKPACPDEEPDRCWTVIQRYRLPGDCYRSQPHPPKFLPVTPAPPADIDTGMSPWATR

TRAIL-R1-Fc N156A (N-glycosylation-deficient human TRAIL-R1 fused to human Fc IgG1) (from UniProt O00220 24-239) (Fc fusion)
fold higher binding affinity than glycosylated TRAIL-R1 [1]: 5 fold

TRAIL-R1: N156A
other: DISC formation (caspase-8/-10 recruitment) [2]: decreases
oligomerisation [3]: decreases
other: DISC formation (caspase-8/-10 recruitment) [4]: decreases
oligomerisation [5]: decreases

B1: mTRAIL-R (mouse TRAIL receptor): N99A (protein)
parent chain: MEPPGPSTPTASAAARADHYTPGLRPLPKRRLLYSFALLLAVLQAVFVPVTANPAHNRPAGLQRPEESPSRGPCLAGQYLSEGNCKPCREGIDYTSHSNHSLDSCILCTVCKEDKVVETRCNITTNTVCRCKPGTFEDKDSPEICQSCSNCTDGEEELTSCTPRENRKCVSKTAWASWHKLGLWIGLLVPVVLLIGALLVWKTGAWRQWLLCIKRGCERDPESANSVHSSLLDRQTSSTTNDSNHNTEPGKTQKTGKKLLVPVNGNDSADDLKFIFEYCSDIVPFDSWNRLMRQLGLTDNQIQMVKAETLVTREALYQMLLKWRHQTGRSASINHLLDALEAVEERDAMEKIEDYAVKSGRFTYQNAAAQPETGPGGSQCV
expression_or_secretion [6]: no change

B2: mTRAIL-R (mouse TRAIL receptor): N99/122A (protein)
parent chain: MEPPGPSTPTASAAARADHYTPGLRPLPKRRLLYSFALLLAVLQAVFVPVTANPAHNRPAGLQRPEESPSRGPCLAGQYLSEGNCKPCREGIDYTSHSNHSLDSCILCTVCKEDKVVETRCNITTNTVCRCKPGTFEDKDSPEICQSCSNCTDGEEELTSCTPRENRKCVSKTAWASWHKLGLWIGLLVPVVLLIGALLVWKTGAWRQWLLCIKRGCERDPESANSVHSSLLDRQTSSTTNDSNHNTEPGKTQKTGKKLLVPVNGNDSADDLKFIFEYCSDIVPFDSWNRLMRQLGLTDNQIQMVKAETLVTREALYQMLLKWRHQTGRSASINHLLDALEAVEERDAMEKIEDYAVKSGRFTYQNAAAQPETGPGGSQCV
expression_or_secretion [6]: no change
localisation_or_trafficking (receptor internalization): increases
oligomerisation [7]: decreases

B3: mTRAIL-R (mouse TRAIL receptor): N122/150A (protein)
parent chain: MEPPGPSTPTASAAARADHYTPGLRPLPKRRLLYSFALLLAVLQAVFVPVTANPAHNRPAGLQRPEESPSRGPCLAGQYLSEGNCKPCREGIDYTSHSNHSLDSCILCTVCKEDKVVETRCNITTNTVCRCKPGTFEDKDSPEICQSCSNCTDGEEELTSCTPRENRKCVSKTAWASWHKLGLWIGLLVPVVLLIGALLVWKTGAWRQWLLCIKRGCERDPESANSVHSSLLDRQTSSTTNDSNHNTEPGKTQKTGKKLLVPVNGNDSADDLKFIFEYCSDIVPFDSWNRLMRQLGLTDNQIQMVKAETLVTREALYQMLLKWRHQTGRSASINHLLDALEAVEERDAMEKIEDYAVKSGRFTYQNAAAQPETGPGGSQCV
expression_or_secretion [6]: no change

B4: mTRAIL-R (mouse TRAIL receptor): N99/150A (protein)
parent chain: MEPPGPSTPTASAAARADHYTPGLRPLPKRRLLYSFALLLAVLQAVFVPVTANPAHNRPAGLQRPEESPSRGPCLAGQYLSEGNCKPCREGIDYTSHSNHSLDSCILCTVCKEDKVVETRCNITTNTVCRCKPGTFEDKDSPEICQSCSNCTDGEEELTSCTPRENRKCVSKTAWASWHKLGLWIGLLVPVVLLIGALLVWKTGAWRQWLLCIKRGCERDPESANSVHSSLLDRQTSSTTNDSNHNTEPGKTQKTGKKLLVPVNGNDSADDLKFIFEYCSDIVPFDSWNRLMRQLGLTDNQIQMVKAETLVTREALYQMLLKWRHQTGRSASINHLLDALEAVEERDAMEKIEDYAVKSGRFTYQNAAAQPETGPGGSQCV
expression_or_secretion [6]: no change

B5: mTRAIL-R (mouse TRAIL receptor): N99/122/150A (protein)
parent chain: MEPPGPSTPTASAAARADHYTPGLRPLPKRRLLYSFALLLAVLQAVFVPVTANPAHNRPAGLQRPEESPSRGPCLAGQYLSEGNCKPCREGIDYTSHSNHSLDSCILCTVCKEDKVVETRCNITTNTVCRCKPGTFEDKDSPEICQSCSNCTDGEEELTSCTPRENRKCVSKTAWASWHKLGLWIGLLVPVVLLIGALLVWKTGAWRQWLLCIKRGCERDPESANSVHSSLLDRQTSSTTNDSNHNTEPGKTQKTGKKLLVPVNGNDSADDLKFIFEYCSDIVPFDSWNRLMRQLGLTDNQIQMVKAETLVTREALYQMLLKWRHQTGRSASINHLLDALEAVEERDAMEKIEDYAVKSGRFTYQNAAAQPETGPGGSQCV
expression_or_secretion [6]: decreases
oligomerisation [7]: decreases

Source: paper PMC5344210
